Data reported in US11987606 (Johns Hopkins, dated 2024).

Molecular target: T cell receptor of Ova-specific CD8+ T cells (OT-I), on OT-I cells (mouse)
Experiment: cell-based or functional assay

B1: Kb(Ova)/ANXA5 (peptide-MHC)
chain: SIINFEKLGGGASGGGGSGGGGSIQKTPQIQVYSRHPPENGKPNILNCYVTQFHPPHIEIQMLKNGKKIPKVEMSDMSFSKDWSFYILAHTEFTPTETDTYACRVKHASMAEPKTVYWDRDMGGGGSGGGGSGGGGSGGGGSGPHSLRYFVTAVSRPGLGEPRYMEVGYVDDTEFVRFDSDAENPRYEPQAPWMEQEGPEYWERETQKAKGNEQSFRVDLRTLLGYYNQSKGGSHTIQVISGCEVGSDGRLLRGYQQYAYDGCDYIALNEDLKTWTAADMAALITKHKWEQAGEAERLRAYLEGTCVEWLRRYLKNGNATLLRTDSPKAHVTHHSRPEDKVTLRCWALGFYPADITLTWQLNGEELIQDMELVETRPAGDGTFQKWASVVVPLGKEQYYTCHVYHQGLPEPLTLRWEPPPSTRSMAQVLRGTVTDFPGFDERADAETLRKAMKGLGTDEESILTLLTSRSNAQRQEISAAFKTLFGRDLLDDLKSELTGKFEKLIVALMKPSRLYDAYELKHALKGAGTNEKVLTEIIASRTPEELRAIKQVYEEEYGSSLEDDVVGDTSGYYQRMLVVLLQANRDPDAGIDEAQVEQDAQALFQAGELKWGTDEEKFITIFGTRSVSHLRKVFDKYMTISGFQIEETIDRETSGNLEQLLLAVVKSIRSIPAYLAETLYYAMKGAGTDDHTLIRVMVSRSEIDLFNIRKEFRKNFATSLYSMIKGDTSGDYKKALLLLCGEDD
IFN-γ expression of OT-I cells (flow cytometry); potency relative to dimeric Kb(Ova)/Fc: > 100 fold
IFN-γ expression of resting or naïve OT-I cells after 12 hours (flow cytometry); potency by minimal dose of antigen required to detect activation, relative to monomeric Kb(Ova): > 1000 fold
